These results are taken from US20150344570A1 (published 2015).

In the assay the target is T1, human FcγRIIb extracellular domain with C-terminal His tag (human, UniProt P31994 43-217).
T1 construct: extracellular domain; also called FcgRIIb; 2b; not shown: His tag attached to the C terminus
T1 sequence (looked up): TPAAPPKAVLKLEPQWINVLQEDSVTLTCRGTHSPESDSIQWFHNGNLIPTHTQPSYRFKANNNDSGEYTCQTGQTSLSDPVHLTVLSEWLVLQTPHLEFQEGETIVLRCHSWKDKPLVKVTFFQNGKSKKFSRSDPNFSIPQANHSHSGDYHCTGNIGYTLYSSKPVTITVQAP
In words: SPR (Biacore T100), antibody captured on antigen peptide chip, FcγRIIb as analyte; relative binding. The protocol: Analysis of interaction between objective antibody and the FcγR was carried out using Biacore T100 (GE Healthcare). HBS-EP+ (GE Healthcare) was used as the running buffer, and the measurement temperature was set to 25° C. Chips produced by immobilizing the antigen peptide by the amine coupling method to a Series S Sencor Chip CM5 (GE Healthcare), or alternatively, chips produced by allowing preliminarily biotinylated antigen peptides to interact with and immobilize onto a Series S Sensor Chip SA (certified) (GE Healthcare) were used. Antibodies of interest were captured onto an antigen peptide-immobilized chip, and allowed to interact to each FcγR diluted with running buffer. To regenerate and repeatedly use the chip, the antibodies captured on the chip were washed off by reacting 10 mM glycine-HCl, pH 1.5.
In general terms: SPR reads the build-up and loss of mass on a sensor chip optically.

B1: GpH7-B3 variant S239_01G/GpL16-k0 (Ho Ab) (antibody, human IgG1, kappa)
heavy: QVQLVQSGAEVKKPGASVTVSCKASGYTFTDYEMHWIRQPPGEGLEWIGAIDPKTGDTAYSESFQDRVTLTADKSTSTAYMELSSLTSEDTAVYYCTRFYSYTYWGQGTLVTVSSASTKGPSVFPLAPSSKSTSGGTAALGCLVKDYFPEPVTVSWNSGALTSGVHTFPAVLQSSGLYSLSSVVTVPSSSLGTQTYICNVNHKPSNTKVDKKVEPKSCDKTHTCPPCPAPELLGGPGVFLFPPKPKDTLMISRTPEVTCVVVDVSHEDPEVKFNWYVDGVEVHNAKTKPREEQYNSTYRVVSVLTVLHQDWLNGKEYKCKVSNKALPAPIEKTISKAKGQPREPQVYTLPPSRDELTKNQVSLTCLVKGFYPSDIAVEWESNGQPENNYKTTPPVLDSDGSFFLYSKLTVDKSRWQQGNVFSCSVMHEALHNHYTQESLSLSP
light: DIVMTQSPLSLPVTPGEPASISCQASESLVHSNRNTYLHWYLQKPGQSPQLLIYKVSNRFSGVPDRFSGSGSGTDFTLKISRVEAEDVGVYYCSQNTHVPPTFGQGTKVEIERTVAAPSVFIFPPSDEQLKSGTASVVCLLNNFYPREAKVQWKVDNALQSGNSQESVTEQDSKDSTYSLSSTLTLSKADYEKHKVYACEVTHQGLSSPVTKSFNRGEC
notes: Anti-glypican-3 IgG1; mutation in both H chains; also called S239G homodimerized antibody
B1: the Ho/Con_2b was 174 % of control GpH7-B3/GpL16-k0 (=100).

B2: GpH7-B3 variant S267_03V/GpL16-k0 (Ho Ab) (antibody, human IgG1, kappa)
heavy: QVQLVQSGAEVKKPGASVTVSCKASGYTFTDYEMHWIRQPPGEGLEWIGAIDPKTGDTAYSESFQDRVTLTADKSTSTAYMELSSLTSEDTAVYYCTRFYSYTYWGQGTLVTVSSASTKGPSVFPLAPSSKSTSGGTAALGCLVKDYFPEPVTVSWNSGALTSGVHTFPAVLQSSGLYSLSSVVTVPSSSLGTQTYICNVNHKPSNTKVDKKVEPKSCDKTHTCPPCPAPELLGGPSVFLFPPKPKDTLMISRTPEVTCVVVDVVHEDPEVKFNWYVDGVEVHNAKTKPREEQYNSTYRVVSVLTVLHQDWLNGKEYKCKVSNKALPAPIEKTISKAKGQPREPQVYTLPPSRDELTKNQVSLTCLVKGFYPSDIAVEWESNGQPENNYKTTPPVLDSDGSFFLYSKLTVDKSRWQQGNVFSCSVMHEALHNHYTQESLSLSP
light: DIVMTQSPLSLPVTPGEPASISCQASESLVHSNRNTYLHWYLQKPGQSPQLLIYKVSNRFSGVPDRFSGSGSGTDFTLKISRVEAEDVGVYYCSQNTHVPPTFGQGTKVEIERTVAAPSVFIFPPSDEQLKSGTASVVCLLNNFYPREAKVQWKVDNALQSGNSQESVTEQDSKDSTYSLSSTLTLSKADYEKHKVYACEVTHQGLSSPVTKSFNRGEC
notes: Anti-glypican-3 IgG1; mutation in both H chains; also called S267V homodimerized antibody
For the molecule B2, the Ho/Con_2b was 206 % of control GpH7-B3/GpL16-k0 (=100).

B3: GpH7-B3 variant S239_07I/GpL16-k0 (Ho Ab) (antibody, human IgG1, kappa)
heavy: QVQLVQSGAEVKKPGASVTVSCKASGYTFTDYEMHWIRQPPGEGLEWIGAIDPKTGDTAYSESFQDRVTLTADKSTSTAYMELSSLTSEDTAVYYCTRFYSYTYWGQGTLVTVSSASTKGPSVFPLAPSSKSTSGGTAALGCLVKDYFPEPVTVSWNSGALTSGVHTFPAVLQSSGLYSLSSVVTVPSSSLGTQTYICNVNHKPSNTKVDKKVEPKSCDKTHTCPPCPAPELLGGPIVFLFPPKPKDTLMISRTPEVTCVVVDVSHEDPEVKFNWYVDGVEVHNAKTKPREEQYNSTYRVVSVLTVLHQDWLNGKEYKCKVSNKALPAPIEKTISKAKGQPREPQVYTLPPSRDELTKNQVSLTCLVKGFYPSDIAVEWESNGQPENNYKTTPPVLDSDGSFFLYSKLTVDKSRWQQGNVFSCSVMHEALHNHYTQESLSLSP
light: DIVMTQSPLSLPVTPGEPASISCQASESLVHSNRNTYLHWYLQKPGQSPQLLIYKVSNRFSGVPDRFSGSGSGTDFTLKISRVEAEDVGVYYCSQNTHVPPTFGQGTKVEIERTVAAPSVFIFPPSDEQLKSGTASVVCLLNNFYPREAKVQWKVDNALQSGNSQESVTEQDSKDSTYSLSSTLTLSKADYEKHKVYACEVTHQGLSSPVTKSFNRGEC
notes: Anti-glypican-3 IgG1; mutation in both H chains; also called S239I homodimerized antibody
B3: the Ho/Con_2b was 108 % of control GpH7-B3/GpL16-k0 (=100).

B4: GpH7-B3 variant S267_07I/GpL16-k0 (Ho Ab) (antibody, human IgG1, kappa)
heavy: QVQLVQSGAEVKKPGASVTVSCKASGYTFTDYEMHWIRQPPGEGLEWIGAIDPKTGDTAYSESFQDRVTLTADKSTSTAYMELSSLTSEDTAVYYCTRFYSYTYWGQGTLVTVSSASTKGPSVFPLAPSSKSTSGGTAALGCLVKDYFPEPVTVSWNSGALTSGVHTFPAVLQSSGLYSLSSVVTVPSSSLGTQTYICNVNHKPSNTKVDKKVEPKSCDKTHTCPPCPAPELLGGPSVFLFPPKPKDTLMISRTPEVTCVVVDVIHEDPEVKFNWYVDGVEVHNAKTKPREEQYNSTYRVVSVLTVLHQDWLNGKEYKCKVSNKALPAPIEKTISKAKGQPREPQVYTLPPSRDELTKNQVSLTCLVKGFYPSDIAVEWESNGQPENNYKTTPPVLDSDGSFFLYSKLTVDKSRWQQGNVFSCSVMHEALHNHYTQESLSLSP
light: DIVMTQSPLSLPVTPGEPASISCQASESLVHSNRNTYLHWYLQKPGQSPQLLIYKVSNRFSGVPDRFSGSGSGTDFTLKISRVEAEDVGVYYCSQNTHVPPTFGQGTKVEIERTVAAPSVFIFPPSDEQLKSGTASVVCLLNNFYPREAKVQWKVDNALQSGNSQESVTEQDSKDSTYSLSSTLTLSKADYEKHKVYACEVTHQGLSSPVTKSFNRGEC
notes: Anti-glypican-3 IgG1; mutation in both H chains; also called S267I homodimerized antibody
For B4, the Ho/Con_2b was 213 % of control GpH7-B3/GpL16-k0 (=100).

B5: GpH7-B3 variant Y300_19Q/GpL16-k0 (Ho Ab) (antibody, human IgG1, kappa)
heavy: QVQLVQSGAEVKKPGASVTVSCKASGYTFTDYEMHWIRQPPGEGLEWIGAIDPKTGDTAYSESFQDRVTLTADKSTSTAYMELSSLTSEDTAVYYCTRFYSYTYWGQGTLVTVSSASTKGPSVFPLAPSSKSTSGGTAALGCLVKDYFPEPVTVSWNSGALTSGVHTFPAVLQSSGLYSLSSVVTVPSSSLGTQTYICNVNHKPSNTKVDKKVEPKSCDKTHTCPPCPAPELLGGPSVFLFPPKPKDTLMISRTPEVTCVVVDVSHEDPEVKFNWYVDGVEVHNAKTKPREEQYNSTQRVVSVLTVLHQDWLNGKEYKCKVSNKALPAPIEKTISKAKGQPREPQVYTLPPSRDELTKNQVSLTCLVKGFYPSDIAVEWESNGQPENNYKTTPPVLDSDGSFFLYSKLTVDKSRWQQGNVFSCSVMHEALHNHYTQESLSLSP
light: DIVMTQSPLSLPVTPGEPASISCQASESLVHSNRNTYLHWYLQKPGQSPQLLIYKVSNRFSGVPDRFSGSGSGTDFTLKISRVEAEDVGVYYCSQNTHVPPTFGQGTKVEIERTVAAPSVFIFPPSDEQLKSGTASVVCLLNNFYPREAKVQWKVDNALQSGNSQESVTEQDSKDSTYSLSSTLTLSKADYEKHKVYACEVTHQGLSSPVTKSFNRGEC
notes: Anti-glypican-3 IgG1; mutation in both H chains; also called Y300Q homodimerized antibody
Turning to B5, the Ho/Con_2b was 124 % of control GpH7-B3/GpL16-k0 (=100).

B6: GpH7-B3 variant S337_10E/GpL16-k0 (Ho Ab) (antibody, human IgG1, kappa)
heavy: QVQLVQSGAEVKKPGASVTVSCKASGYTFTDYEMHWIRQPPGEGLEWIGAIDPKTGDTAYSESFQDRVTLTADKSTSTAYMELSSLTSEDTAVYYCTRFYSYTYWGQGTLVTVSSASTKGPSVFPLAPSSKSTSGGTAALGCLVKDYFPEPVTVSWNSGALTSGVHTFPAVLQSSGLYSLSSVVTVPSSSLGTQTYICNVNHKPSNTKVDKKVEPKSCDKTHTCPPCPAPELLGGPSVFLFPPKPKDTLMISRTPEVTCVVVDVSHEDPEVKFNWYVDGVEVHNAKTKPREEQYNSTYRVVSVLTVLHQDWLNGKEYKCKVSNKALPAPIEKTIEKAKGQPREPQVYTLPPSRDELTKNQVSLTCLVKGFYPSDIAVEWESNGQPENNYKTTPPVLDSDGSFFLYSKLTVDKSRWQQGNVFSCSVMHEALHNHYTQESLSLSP
light: DIVMTQSPLSLPVTPGEPASISCQASESLVHSNRNTYLHWYLQKPGQSPQLLIYKVSNRFSGVPDRFSGSGSGTDFTLKISRVEAEDVGVYYCSQNTHVPPTFGQGTKVEIERTVAAPSVFIFPPSDEQLKSGTASVVCLLNNFYPREAKVQWKVDNALQSGNSQESVTEQDSKDSTYSLSSTLTLSKADYEKHKVYACEVTHQGLSSPVTKSFNRGEC
notes: Anti-glypican-3 IgG1; mutation in both H chains; also called S337E homodimerized antibody
Regarding B6, the Ho/Con_2b is 109 % of control GpH7-B3/GpL16-k0 (=100).

B7: GpH7-B3 variant S267_14T/GpL16-k0 (Ho Ab) (antibody, human IgG1, kappa)
heavy: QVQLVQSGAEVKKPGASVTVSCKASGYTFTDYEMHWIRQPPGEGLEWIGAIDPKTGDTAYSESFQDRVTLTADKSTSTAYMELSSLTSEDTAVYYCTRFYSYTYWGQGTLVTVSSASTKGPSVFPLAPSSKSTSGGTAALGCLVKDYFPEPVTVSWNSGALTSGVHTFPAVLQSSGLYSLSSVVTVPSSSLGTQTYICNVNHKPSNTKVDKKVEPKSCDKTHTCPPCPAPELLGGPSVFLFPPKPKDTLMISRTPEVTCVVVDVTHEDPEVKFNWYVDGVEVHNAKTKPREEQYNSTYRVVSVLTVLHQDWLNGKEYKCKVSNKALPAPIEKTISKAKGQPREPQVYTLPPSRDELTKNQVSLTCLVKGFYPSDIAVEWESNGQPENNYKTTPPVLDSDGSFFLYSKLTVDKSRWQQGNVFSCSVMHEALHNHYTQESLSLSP
light: DIVMTQSPLSLPVTPGEPASISCQASESLVHSNRNTYLHWYLQKPGQSPQLLIYKVSNRFSGVPDRFSGSGSGTDFTLKISRVEAEDVGVYYCSQNTHVPPTFGQGTKVEIERTVAAPSVFIFPPSDEQLKSGTASVVCLLNNFYPREAKVQWKVDNALQSGNSQESVTEQDSKDSTYSLSSTLTLSKADYEKHKVYACEVTHQGLSSPVTKSFNRGEC
notes: Anti-glypican-3 IgG1; mutation in both H chains; also called S267T homodimerized antibody
As to B7, the Ho/Con_2b was 106 % of control GpH7-B3/GpL16-k0 (=100).

B8: GpH7-B3 variant S337_14T/GpL16-k0 (Ho Ab) (antibody, human IgG1, kappa)
heavy: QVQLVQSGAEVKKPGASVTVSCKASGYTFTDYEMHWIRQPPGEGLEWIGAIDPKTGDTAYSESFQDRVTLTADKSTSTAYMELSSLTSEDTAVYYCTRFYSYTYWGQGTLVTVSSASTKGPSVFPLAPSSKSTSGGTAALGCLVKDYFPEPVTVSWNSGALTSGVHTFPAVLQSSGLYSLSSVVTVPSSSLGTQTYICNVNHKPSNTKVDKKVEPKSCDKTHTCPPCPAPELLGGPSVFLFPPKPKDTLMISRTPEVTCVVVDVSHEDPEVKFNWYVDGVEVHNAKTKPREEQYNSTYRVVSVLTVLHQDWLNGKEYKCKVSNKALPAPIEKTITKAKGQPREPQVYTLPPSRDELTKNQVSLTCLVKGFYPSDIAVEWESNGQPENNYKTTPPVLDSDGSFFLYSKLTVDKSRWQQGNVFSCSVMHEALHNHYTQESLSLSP
light: DIVMTQSPLSLPVTPGEPASISCQASESLVHSNRNTYLHWYLQKPGQSPQLLIYKVSNRFSGVPDRFSGSGSGTDFTLKISRVEAEDVGVYYCSQNTHVPPTFGQGTKVEIERTVAAPSVFIFPPSDEQLKSGTASVVCLLNNFYPREAKVQWKVDNALQSGNSQESVTEQDSKDSTYSLSSTLTLSKADYEKHKVYACEVTHQGLSSPVTKSFNRGEC
notes: Anti-glypican-3 IgG1; mutation in both H chains; also called S337T homodimerized antibody
For B8, the Ho/Con_2b was 110 % of control GpH7-B3/GpL16-k0 (=100).

B9: GpH7-B3 variant T335_09D/GpL16-k0 (Ho Ab) (antibody, human IgG1, kappa)
heavy: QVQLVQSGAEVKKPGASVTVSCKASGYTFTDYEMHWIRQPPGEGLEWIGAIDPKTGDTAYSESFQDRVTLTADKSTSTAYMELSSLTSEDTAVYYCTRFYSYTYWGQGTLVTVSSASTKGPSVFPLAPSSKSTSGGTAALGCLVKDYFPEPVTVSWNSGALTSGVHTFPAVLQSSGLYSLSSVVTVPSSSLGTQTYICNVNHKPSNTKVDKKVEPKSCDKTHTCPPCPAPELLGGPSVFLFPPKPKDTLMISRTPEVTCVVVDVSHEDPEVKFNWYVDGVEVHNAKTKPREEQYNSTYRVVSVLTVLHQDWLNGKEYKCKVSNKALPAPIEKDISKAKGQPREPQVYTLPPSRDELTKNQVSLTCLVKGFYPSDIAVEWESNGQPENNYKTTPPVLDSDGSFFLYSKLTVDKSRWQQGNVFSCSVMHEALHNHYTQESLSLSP
light: DIVMTQSPLSLPVTPGEPASISCQASESLVHSNRNTYLHWYLQKPGQSPQLLIYKVSNRFSGVPDRFSGSGSGTDFTLKISRVEAEDVGVYYCSQNTHVPPTFGQGTKVEIERTVAAPSVFIFPPSDEQLKSGTASVVCLLNNFYPREAKVQWKVDNALQSGNSQESVTEQDSKDSTYSLSSTLTLSKADYEKHKVYACEVTHQGLSSPVTKSFNRGEC
notes: Anti-glypican-3 IgG1; mutation in both H chains; also called T335D homodimerized antibody
For B9, the Ho/Con_2b is 116 % of control GpH7-B3/GpL16-k0 (=100).

B10: GpH7-B3 variant S267_09D/GpL16-k0 (Ho Ab) (antibody, human IgG1, kappa)
heavy: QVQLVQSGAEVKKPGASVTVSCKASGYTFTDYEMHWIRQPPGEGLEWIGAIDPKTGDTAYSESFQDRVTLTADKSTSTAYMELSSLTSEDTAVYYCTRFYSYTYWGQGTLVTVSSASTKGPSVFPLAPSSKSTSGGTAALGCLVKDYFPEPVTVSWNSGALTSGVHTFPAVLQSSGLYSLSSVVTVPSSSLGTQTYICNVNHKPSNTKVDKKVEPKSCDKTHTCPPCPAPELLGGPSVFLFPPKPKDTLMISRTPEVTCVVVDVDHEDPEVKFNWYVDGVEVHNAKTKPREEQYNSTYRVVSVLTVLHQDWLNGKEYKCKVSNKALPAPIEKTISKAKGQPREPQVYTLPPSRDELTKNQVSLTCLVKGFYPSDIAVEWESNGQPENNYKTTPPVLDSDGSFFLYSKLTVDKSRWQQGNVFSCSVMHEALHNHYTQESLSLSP
light: DIVMTQSPLSLPVTPGEPASISCQASESLVHSNRNTYLHWYLQKPGQSPQLLIYKVSNRFSGVPDRFSGSGSGTDFTLKISRVEAEDVGVYYCSQNTHVPPTFGQGTKVEIERTVAAPSVFIFPPSDEQLKSGTASVVCLLNNFYPREAKVQWKVDNALQSGNSQESVTEQDSKDSTYSLSSTLTLSKADYEKHKVYACEVTHQGLSSPVTKSFNRGEC
notes: Anti-glypican-3 IgG1; mutation in both H chains; also called S267D homodimerized antibody
In the case of B10, the Ho/Con_2b was 327 % of control GpH7-B3/GpL16-k0 (=100).
